The target of this assay is spike proteins of SARS-CoV-2 variants (614G, Alpha, Beta, Gamma, Delta, Kappa, Lambda, Mu, BA.1, BA.). Description: cell-based or functional assay.

B1: 3-1 antibody (antibody, V domains shown)
VH: EVQLVQSGAEVKKPGESLKISCKGSGYIFTNYWIGWVRQMPGKGLEWMGIINPRDSDTRYSPSFQGQVTISTDKSINTAYLQWSSLKASDTAMYYCARQQGGFGDLGAYNWFDPWGQGTLVTVSS
VL: not shown
Consider B1, for which the IC50, pseudovirus neutralization was under 0.25 µg/mL.

The values above are taken from patent publication US20260139035A1.
